The record followed here is a protein production outcome set (Wang et al. 2014).

The data set can be described thus: label from the status in PepcDB records.

Take “MNSKIMYHIFPDRFHRYGEDRPGLIKWGEKPSRDSFFGGNLEGIRQKIQYIKDLRVDHIYLNPLFKSKSNHRYDVDDYYSIDELLGTDQDLKNLVSDAHASGIKIVLDMVFNHTSTDFPAFRDVIEKGRNSPYYRWYIFHRDEFTVFRGRGKRGSYPSYETFMGYGGMPKLDHRNPEVRRYCINVLKYYVQKFDVDGFRYDVAHSIYSKFFEEVFSEIGTGILHIGEAWCLPTYLVNGSAWQSYTNYFLGGSIIDFLKGSITLGEFYDRVQRMLIVNGIEKQQAMMNVLDSHDTPRILRILNGDRKKVKLAYSILYLFDGIATIYYGDEVGLDGGKDPDDRRCFPWDSMDEDMHSFFMNLGDLREKYSLGSALEHHHHHH”: the protein production result is “failed”.

Consider “MNSLQILSFVGFTLLVAVITWWKVRKTDTGSQQGYFLAGRSLKAPVIAASLMLTNLSTEQLVGLSGQAYKSGMSVMGWEVTSAVTLIFLALIFLPRYLKRGIATIPDFLEERYDKTTRIIIDFCFLIATGVCFLPIVLYSGALALNSLFHVGESLQISHGAAIWLLVILLGLAGILYAVIGGLRAMAVADSINGIGLVIGGLMVPVFGLIAMGKGSFMQGIEQLTTVHAEKLNSIGGPTDPLPIGAAFTGLILVNTFYWCTNQGIVQRTLASKSLAEGQKGALLTAVLKMLDPLVLVLPGLIAFHLYQDLPKADMAYPTLVNNVLPVPMVGFFGAVLFGAVISTFNGFLNSASTLFSMGIYRRIINQNAEPQQLVTVGRKFGFFIAIVSVLVAPWIANAPQGLYSWMKQLNGIYNVPLVTIIIMGFFFPRIPALAAKVAMGIGIISYITINYLVKFDFHFLYVLACTFCINVVVMLVIGFIKPRATPFTFKDAFAVDMKPWKNVKIASIGILFAMIGVYAGLAEFGGYGTRWLAMISYFIAAVVIVYLIFDSWRHRHDPAVTFTPDGKDSL”, for which the protein production entry is reported as “failed”. The result for “MNSNDQPGLDLLGDPIVLTQRLVDIPSPSGQEKQIADEIEDALRNLNLPGVEVFRFNNNVLARTNRGLASRVMLAGHIDTVPIADNLPSRVEDGIMYGCGTVDMKSGLAVYLHTFATLATSTELKHDLTLIAYECEEVADHLNGLGHIRDEHPEWLAADLALLGEPTGGWIEAGCQGNLRIKVTAHGVRAHSARSWLGDNAMHKLSPIISKVAAYKAAEVNIDGLTYREGLNIVFCESGVANNVIPDLAWMNLNFRFAPNRDLNEAIEHVVETLELDGQDGIEWAVEDGAGGALPGLGQQVTSGLIDAVGREKIRAKFGWTDVSRFSAMGIPALNFGAGDPSFAHKRDEQCPVEQITDVAAILKQYLSE” reads “not failed”. Turning to “MNSTISFLYQPKVQNGSIISVEALLRVPGVTNIESYVSMVTNKPLFDYTIIRKVLSDRREYHENIGYSFPVSINISIQSLESDYFINKTSKLLKNEPNVTLEITENDSYLSLERVKESMGILKSLGVKFSLDDFGKGFSDIEQVLSLDLDEIKVDGSLVNDIENNFYKFRHLKYTLDELEDISNFNIVIERVENKKQVNLIESLGKKVSYQGYFFYKPMNLFDLTIATPEPHKEEKHEPKLLLEKLIYELIKTDNDNECAQLVNDIHSVDIFNNLGSKVCDSLTITEVKKSILKKYNKIALNPNSPENLFFKSYLNCMSRLVIIRDSEGNALFNNQAHINFMNVDLVGMPLESIYEKFEQYESCIAIDKELIESKSNFLAVREVVDFDGQTKSYYTFRQKINHYGKTLIITIVYDEDDRDSFPRDALTDCFDRTILNSYYMNQFNMVAFIDMDGFKKINDNFSHKLGDDCLSKFVMYLKHELRKEDLIIRYGGDEFLIFTQWDDRHTFESRLNLIRNKVEKLFKSNNIDLSFSYGIEDLSKGMEIAINCADEKMYADKSRKLQ”, the protein production result is given as “failed”. In the case of “MNSYPLISVIMSVYKEEREWLVSSIQSILDQTVSDFEFIIILDFPNSELLKTLKDFEKKDSRIIIYQNEKNVGLVESLNTALSFSRGKYIARMDADDISHKNRFEKQLKYITLNNLDLVGGNVNIFHSNKGIYNTTDKVQSDYFLCKLLKIGTIGIVHPTFFSKRNVYDTIGGYYHAECAEDLELLMRANLNGFKIGNIPDVILDCRYSEKSITKENAYFMFCTVKYLKSLYRSSLKSGDYKFNSNYIELYLYDENNKLAFSEKQNLMSEARHSFNEKKYISFLINLIKSILISRTVFFSIKVNVMSFLFRKVEVKIPKVLLACIKIKLQLEHHHHHH”, the protein production entry is “not failed”. “MNTFPWLTTIILLPIVAALFIPIIPDKDGKTVRWYSLAVGLVDFALIVYAFYSGFDLSEPGLQLVESYTWLPQIDLKWSVGADGLSMPLIILTGFITTLATMAAWPVTLKPKLFYFLMLLMYGGQIAVFAVQDILLFFLVWELELVPVYLILSIWGGKKRLYAATKFILYTAGGSLFILLAGLTLAFYGDVNTFDMSAIAAKDIPVNLQLLLYAGFLIAYGVKLPIFPLHTWLPDAHGEATAPAHMLLAGILLKMGGYALLRMNVGMLPDAHAVFAPVLVILGVVNIIYAAFTSFAQRNLKRKIAYSSISHMGFVLIGLASFTDLGMSGAMLQMISHGLIGASLFFMVGATYDRTHTLMLDEMGGIGQKMKKGFAMWTACSLASLALPGMSGFVAELMVFVGFATSDAYNLVFRTIVVVLMGVGVILTPIYLLSMLREMLYGPENEELVNHTNLVDVEPREVFIIGCLLVPIIGIGFYPKLITQIYDPTINQLVQTARRSVPSLVQQANLSPLEVTALRPPTIGF”: the protein production result is on record as “failed”. The result for “MNTIIRYASLWGLCAALTLAQTPSKTPDEIKQILNNYSHKNLKLIDPPTSSLEATPSFLSSPKETATTINQEIAKYHEKSDKAALGLYELLKGATTNLSLQAQELSVKQAMKNHTIAKAMFLPTLNASYNFKNEARDTPEYKHYNTQQLQAQVTLNVFNGFSDVNNVKEKSATYRSNVANLEYSRQSVYLQVVQQYYEYFNNLARMIALQKKLEQIKTDIKRVTKLYDKGLTTIDDLQSLKAQGNLSEYDILDMQFALEQNRLTLEYLTNLSVKNLKKTTIDAPNLQLRERQDLVSLREQISAIRYQNKQLNYYPKIDVFDSWLFWIQKPAYATGRFGNFYPGQQNTAGVTATLNIFDDIGLSLQKQSIMLGQLANEKNLAYKKLEQEKDEQLYRKSLDIARAKIESSKASLDAANLSFANIKRKYDANLVDFTTYLRGLTTRFDAEVAYNLALNNYEVQKANYIFNSGHKIDDYVH” reads “failed”; that for “MNTILSTLFIVLAAWFVISRFLPVKGVQNINGKELKSIVGKQGKYFIDVRTVGEYRGNHMKGFQNIPLNDLASKTNQLDKNREVIVICQSGMRSKQAAKMLKKLGFQHVINVSGGMNGL”, “failed”; that for “MNTIVVAQLQRQFQDYIVSLYQQGFLDNQFSELRKLQDEGTPDFVAEVVSLFFDDCSKLINTMSISLERPDNVDFKQVDSGVHQLKGSSSSLCFVLSVGARRVKNVCISFKECCDVQNREGYSSNSHTNCDNDIWHRCLRCLQQVDYEYKMLKTKLQDLFNVSFKLCENLLVLLLEKQILQAGGTIPQVDIN”, “failed”. In the case of “MNTLNRYIGWEVIKGAAFAALVLLALLNFFTFADELRDLGEGNYGLGSIFLYLTLTSPHSLYELIPSGALIGGLVVLGNMANNHELVAMQAAGVSRGRIVWAVLRAGIVISLISVVISEYVIPPAERAAQMLKATATRQQVASQTKYGVWIRDGNVYVNVREIENQERLGDIHIFEISPDGRPALAMHAARASFDRGIWKLEDIGLTRFDPAGNAAIAEHKEQEDWSSVLSPDMLDVFIVRPENLSAQDLAKYMAYQTENAQKSLAVEQAFWGRMVNPLITLAMLLLAIPFVFNARRDVSSGQRIVIGVTIGLGFYLTNRMVSHLGLVYEVNAPLTMVTPPLVVLFAALAAFRRRP” it was “failed”. Consider “MNTLRYFDFGAARPVLLLIARIAVVLIFIIFGFPKMMGFDGTVQYMASLGAPMPMLAAIIAVVMEVPAAILIVLGFFTRPLAVLFIFYTLGTAVIGHHYWDMTGDAVGPNMINFWKNVSIAGAFLLLAITGPGAISLDRR”, for which the protein production result was “failed”. In the case of “MNTPQFNKIAVLVATLLISALFLTMIRQFLVTILLAGIFTGLAYPLFSRFITLTRGHRSLSASMTLVIFFMMVFLPLLAVFTVVILQAVSLSSTAIPLIREQLRDPEGFLRMLSSLPFYKDIESYSDLILEKAAEILGNLGSSVLSSFSAITWTAIYDLVLFIIFWYTMFFLLRDGHELLERIKYYLPLNESDQRRLFDRFVSVTRASLKGSLIIAVIQGTLAGLAFYVAGINQAVFWGAIMAMLSLLPLIGSPIIWVPAVIILALSGNYAQAIGLFLFCSIIVGQIDNVLRPILVGRDTSMHELFIFFGTLGGIGMFGLPGFIIGPVVAALFVTVWDIYGETFNESLIERRSGGGQAAGSDGSAP”, the protein production entry is listed as “failed”.
